These results are taken from patent US20120135912A1 (PERSEID THERAPEUTICS, published 2012).

Test [1] has as its target T1, human LPAM-1-Fc (alpha4-Fc/beta7-Fc heterodimer) (human).
T1 construct: Soluble heterodimer from CHO cells, Protein A purified
Put plainly: SPR (BIACORE), LPAM-1-Fc captured by anti-human IgG, 1 mM MnCl2, 1:1 Langmuir. On the procedure: (§1) The kinetic 2D-VCAM-1 assay measures binding kinetics of a dimeric ligand (e.g., VLA-Fc fusion protein or LPAM-1-Fc fusion protein) coated to sensor chips and monomeric analyte (e.g., 2D-VCAM-1 variant polypeptides) in the mobile phase. Goat anti-human IgG antibody (Jackson ImmunoResearch, Catalog No. 105-005-098) was immobilized on CM-5 sensor chips (GE Healthcare, Catalog No. BR-1000-14) according to the manufacturer's protocol. Antibody was diluted to 30 μg/ml in immobilization buffer (10 mM sodium acetate, pH 5.0 (GE Healthcare, Catalog No. BR-1003-51)). […] Un-reacted sites were quenched with 35 μl of 1 M ethanolamine-HCl pH 8.5 (GE Healthcare, Catalog No. BR-1000-50). This procedure typically yielded 15,000 response units (RU) of coupled antibody. VLA4-Fc or LPAM-1-Fc, prepared as described in Examples 3 and 4, respectively, were bound to antibody-coated sensor chips by injection of 20 μl of ligand solution (20 μg/ml protein in HBS-P-Mn buffer at a flow rate of 10 μl/min). Ligand capture levels were typically 200-300 RU. 2D-VCAM-1 variant polypeptides were diluted in HBS-P-Mn and flowed over ligand-coated sensor chips for 2 min at 30 μl/min, followed by 5 min incubation with in HBS-P-Mn containing no protein at the same flow rate. For 2D-VCAM-1 variant polypeptides having very slow dissociation rates from VLA4-Fc or LPAM-1-Fc, kinetic assays were also conducted using longer dissociation times (e.g., 20 min). Rmax signal levels for 2D-VCAM-1 variant polypeptides ranged from approximately 5-25 RU. Regeneration between cycles was performed by 200 sec incubation with 10 mM glycine buffer (pH 1.7) at 50 μl/min. New chips were subjected to 4-5 cycles of capture/binding/regeneration prior to use in actual experiments. Data from a reference cell containing goat anti-human IgG capture antibody alone was subtracted from data obtained from flow cells containing captured VLA4-Fc or LPAM-1-Fc. Typically, 8 dilutions of 2D-VCAM-1 variant polypeptides ranging from 150 nM to 0.069 nM were analyzed against a blank reference (HBS-P-Mn buffer alone).

The target of test [2] is T2, human VLA4-Fc (alpha4-Fc/beta1-Fc heterodimer) (human).
T2 construct: Soluble heterodimer from CHO cells, Protein A purified; also called VLA-Fc
T2 sequence (chain, as listed by the source limits assumed, form in doubt, chain 1 of 2): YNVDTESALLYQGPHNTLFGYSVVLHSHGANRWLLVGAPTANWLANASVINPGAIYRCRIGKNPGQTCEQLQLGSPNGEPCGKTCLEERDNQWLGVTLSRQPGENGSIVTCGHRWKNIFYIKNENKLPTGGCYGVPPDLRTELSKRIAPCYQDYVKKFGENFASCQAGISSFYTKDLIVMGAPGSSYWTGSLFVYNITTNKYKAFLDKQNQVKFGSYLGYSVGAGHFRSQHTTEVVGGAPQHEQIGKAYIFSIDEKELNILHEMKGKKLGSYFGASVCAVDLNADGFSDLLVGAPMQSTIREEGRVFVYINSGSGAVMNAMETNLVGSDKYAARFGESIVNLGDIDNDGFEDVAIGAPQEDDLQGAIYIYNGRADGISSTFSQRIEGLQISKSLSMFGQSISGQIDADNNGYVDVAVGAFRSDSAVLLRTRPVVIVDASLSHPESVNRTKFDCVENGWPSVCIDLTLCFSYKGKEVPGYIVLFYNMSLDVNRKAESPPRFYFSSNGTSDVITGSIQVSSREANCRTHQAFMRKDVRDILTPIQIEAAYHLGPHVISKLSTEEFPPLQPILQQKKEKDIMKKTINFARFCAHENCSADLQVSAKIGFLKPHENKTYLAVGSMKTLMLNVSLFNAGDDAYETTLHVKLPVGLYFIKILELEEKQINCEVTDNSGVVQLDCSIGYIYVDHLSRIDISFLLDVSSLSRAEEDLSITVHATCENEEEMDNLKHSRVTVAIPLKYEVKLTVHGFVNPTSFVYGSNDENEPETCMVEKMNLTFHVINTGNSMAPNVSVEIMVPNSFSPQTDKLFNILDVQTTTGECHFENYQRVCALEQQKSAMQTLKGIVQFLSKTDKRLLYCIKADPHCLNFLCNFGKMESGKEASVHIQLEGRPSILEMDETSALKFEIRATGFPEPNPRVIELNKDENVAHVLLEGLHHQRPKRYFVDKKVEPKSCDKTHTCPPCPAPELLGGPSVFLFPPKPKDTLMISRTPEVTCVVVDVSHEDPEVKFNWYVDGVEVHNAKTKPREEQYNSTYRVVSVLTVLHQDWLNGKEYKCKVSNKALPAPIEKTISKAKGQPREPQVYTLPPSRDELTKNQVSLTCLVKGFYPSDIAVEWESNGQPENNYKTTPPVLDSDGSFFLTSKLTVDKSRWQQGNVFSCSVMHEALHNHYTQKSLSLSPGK
T2 sequence (chain, as listed by the source limits assumed, form in doubt, chain 2 of 2): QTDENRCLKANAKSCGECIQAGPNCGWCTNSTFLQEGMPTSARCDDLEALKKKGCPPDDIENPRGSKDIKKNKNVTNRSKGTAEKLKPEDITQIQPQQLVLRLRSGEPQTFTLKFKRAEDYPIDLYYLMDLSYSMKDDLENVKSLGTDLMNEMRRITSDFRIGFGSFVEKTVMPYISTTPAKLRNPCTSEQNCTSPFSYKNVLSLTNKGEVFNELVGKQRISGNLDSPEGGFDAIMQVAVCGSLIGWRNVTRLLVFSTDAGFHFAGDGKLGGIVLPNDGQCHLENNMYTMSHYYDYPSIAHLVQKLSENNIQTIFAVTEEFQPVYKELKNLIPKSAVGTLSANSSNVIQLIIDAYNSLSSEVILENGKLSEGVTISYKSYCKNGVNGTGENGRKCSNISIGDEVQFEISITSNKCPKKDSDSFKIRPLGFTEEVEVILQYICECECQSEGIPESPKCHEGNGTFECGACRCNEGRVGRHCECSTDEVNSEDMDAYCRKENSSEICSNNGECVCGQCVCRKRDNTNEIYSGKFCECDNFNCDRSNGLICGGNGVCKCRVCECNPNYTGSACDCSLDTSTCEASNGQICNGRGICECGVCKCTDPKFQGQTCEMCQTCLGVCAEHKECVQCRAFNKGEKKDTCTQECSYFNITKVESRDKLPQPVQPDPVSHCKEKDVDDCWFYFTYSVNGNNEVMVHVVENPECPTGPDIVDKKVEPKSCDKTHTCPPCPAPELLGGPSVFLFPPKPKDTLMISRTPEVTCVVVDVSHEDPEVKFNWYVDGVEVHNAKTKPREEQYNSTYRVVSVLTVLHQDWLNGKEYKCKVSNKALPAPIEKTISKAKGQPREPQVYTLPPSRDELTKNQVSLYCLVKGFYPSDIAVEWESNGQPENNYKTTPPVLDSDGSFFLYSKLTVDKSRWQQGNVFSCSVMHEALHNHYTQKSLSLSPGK
The experiment in a line: SPR (BIACORE), VLA4-Fc captured by anti-human IgG, 1 mM MnCl2, 1:1 Langmuir. On the procedure:
as §1
A general note: SPR reads the build-up and loss of mass on a sensor chip optically.

In test [3] the target is T1, human LPAM-1-Fc (alpha4-Fc/beta7-Fc …). Put plainly: SPR (BIACORE), retest with new polypeptide preparations and new LPAM-1-Fc. On the procedure: In this screening method, Biacore sensor chips were derivatized with anti-human IgG. After capture of VLA4-Fc or LPAM-1-Fc ligands on these surfaces, 2D-VCAM-1 variant polypeptides in buffer were allowed to flow over the ligand-coated sensor chips. The ability of a 2D-VCAM variant polypeptide to bind to a specific binding partner (i.e., VLA4-Fc or LPAM-1-Fc) was evaluated. Control protein (i.e., human 2D-VCAM-1 polypeptide (SEQ ID NO:2) or Q38L-2D-VCAM-1 polypeptide (SEQ ID NO:10)), was also allowed to flow over the ligand-coated sensor chips and the abilities of these molecules to bind to VLA4-Fc or LPAM-1-Fc were similarly evaluated for comparison. Using the Biacore system, the association (kₒₙ) and dissociation (koff) rate constant of the protein of interest binding to VLA4-Fc or LPAM-1-Fc ligands can be evaluated and used to calculate the equilibrium dissociation constant, KD. Variant 2D-VCAM-1 polypeptides having increased binding affinities for VLA4-Fc and/or LPAM-1-Fc, compared to human 2D-VCAM-1 and/or Q38L-2D-VCAM-1, were identified.
All BIACORE analyses were performed on a BIACORE 2000 system or BIACORE 3000 system (GE Healthcare) at room temperature (RT, 25° C.), HBS-P buffer (10 mM Hepes (pH 7.4), 150 mM NaCl, 0.005% surfactant P20) supplemented with 1 mM MnCl₂ (HBS-P-Mn) was used as the flow buffer for all experiments except where indicated.
Table 6B presents binding affinities of representative 2D-VCAM-1 variant polypeptides of the invention to LPAM-1-Fc when retested with new polypeptide preparations and new LPAM-1-Fc ligand and measured by the standard BICORE assay described above. The controls human 2D-VCAM-1 or the Q38L 2D-VCAM-1 polypeptide was not reassayed.

Test [4] addresses T2, human VLA4-Fc (alpha4-Fc/beta1-Fc …). Put plainly: SPR (BIACORE), retest with new polypeptide preparations and new VLA4-Fc. On the procedure: as §1

Changes are numbered by the printed parent chain. Names may count otherwise.

T1 sequence (chain, as listed by the source limits assumed, chain 1 of 2): as the sequence (chain, as listed by the source limits assumed, form in doubt, chain 1 of 2) above
T1 sequence (chain, as listed by the source limits assumed, chain 2 of 2): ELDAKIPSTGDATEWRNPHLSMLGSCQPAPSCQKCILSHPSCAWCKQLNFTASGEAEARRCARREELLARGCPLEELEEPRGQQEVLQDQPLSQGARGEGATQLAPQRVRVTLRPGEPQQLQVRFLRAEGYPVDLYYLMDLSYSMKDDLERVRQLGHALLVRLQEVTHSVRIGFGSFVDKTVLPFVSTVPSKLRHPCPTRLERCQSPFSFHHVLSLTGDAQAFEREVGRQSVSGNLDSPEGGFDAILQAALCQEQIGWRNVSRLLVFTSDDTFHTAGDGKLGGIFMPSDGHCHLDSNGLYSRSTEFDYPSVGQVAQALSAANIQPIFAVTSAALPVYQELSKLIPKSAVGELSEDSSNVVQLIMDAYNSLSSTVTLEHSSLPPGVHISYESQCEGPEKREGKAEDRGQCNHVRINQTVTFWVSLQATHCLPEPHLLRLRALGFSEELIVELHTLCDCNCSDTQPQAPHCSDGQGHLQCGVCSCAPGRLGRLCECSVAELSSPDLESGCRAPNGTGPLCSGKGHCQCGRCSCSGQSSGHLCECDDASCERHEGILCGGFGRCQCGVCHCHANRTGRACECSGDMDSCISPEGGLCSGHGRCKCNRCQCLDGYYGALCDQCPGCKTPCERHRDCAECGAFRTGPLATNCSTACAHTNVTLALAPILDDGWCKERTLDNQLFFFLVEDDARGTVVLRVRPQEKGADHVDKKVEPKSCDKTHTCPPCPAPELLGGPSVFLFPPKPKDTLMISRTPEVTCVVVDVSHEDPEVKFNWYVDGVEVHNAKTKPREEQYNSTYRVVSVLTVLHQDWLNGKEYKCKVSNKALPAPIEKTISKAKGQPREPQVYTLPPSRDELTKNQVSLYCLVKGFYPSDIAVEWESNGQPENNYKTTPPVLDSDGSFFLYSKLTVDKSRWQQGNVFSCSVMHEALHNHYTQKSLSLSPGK

B1: 2D-VCAM-1 variant Clone 46 (ligand)
chain: FKIETTPESRYLAQIGDSVSLTCSTTGCESPFFSWRPQLDAPLNGKVTNEGTTSTLTMNPVSFGNEHSYLCTATCESRKLEKGIQVEIYSFPKDPEIHLSGPLEAGKPITVKCSVADVYPFDRLEIDLLKGDHLMKSQEFLEDADRKSLETKSLEVTFTPVIEDIGKVLVCRAKLHIDEMDSVPTVRQAVKELQVYISP
notes: also called Clone 046; not shown: His tag
Consider B1, for which the Kd worked out at 27.2 nM in test [1], 0.123 nM in test [2], 77 nM in test [3] and 1.95 nM in test [4]. Besides, the “binding affinity for LPAM-1-Fc relative to human 2D-VCAM-1” value in test [1] was determined as 9 fold. In addition, the “binding affinity for VLA4-Fc relative to human 2D-VCAM-1” value in test [2] amounted to 124 fold.

B2: Q38L-2D-VCAM-1 (ligand)
chain: B1 chain with P37T, Q38L, L39I, A41S
notes: also called Q38L 2D-VCAM-1 polypeptide; not shown: His tag
For B2, in test [1], the Kd is 20.5 nM and the “binding affinity for LPAM-1-Fc relative to human 2D-VCAM-1” value came to 12 fold. Moreover, in test [2], the Kd turned out to be 1.87 nM and the “binding affinity for VLA4-Fc relative to human 2D-VCAM-1” value came to 8 fold.

B3: 2D-VCAM-1 variant Clone 146 (ligand, not shown: small tags and cut ends)
chain: B1 chain with F32L, S34F, Q38L, A41S, T74R, K79S
On to B3, for which, in test [1], binding was characterised by a dissociation constant (Kd) of 0.439 nM and the “binding affinity for LPAM-1-Fc relative to human 2D-VCAM-1” value came out at 565 fold. Besides, binding in test [3] was characterised by a dissociation constant (Kd) of 1.2 nM.

B4: 2D-VCAM-1 variant Clone 59 (ligand)
chain: B1 chain with Q38L, A41S, L141F, D145A, R146W
notes: also called Clone 059; not shown: His tag
With B4, the Kd in test [1] amounted to 0.405 nM; in test [2], 0.0501 nM; in test [3] it was 2.6 nM; in test [4], 0.095 nM. Moreover, the “binding affinity for LPAM-1-Fc relative to human 2D-VCAM-1” value in test [1] came to 612 fold. For the same molecule, the “binding affinity for VLA4-Fc relative to human 2D-VCAM-1” value in test [2] turned out to be 303 fold.

B5: 2D-VCAM-1 variant Clone 47 (ligand)
chain: B1 chain with Q38L, A41S
notes: also called Clone 047; not shown: His tag
On to B5, for which the Kd in test [1] worked out at 6.54 nM; in test [2] it was 0.148 nM; in test [3], 40 nM; in test [4], 0.68 nM. Also, in test [1], the “binding affinity for LPAM-1-Fc relative to human 2D-VCAM-1” value came out at 38 fold. For the same molecule, the “binding affinity for VLA4-Fc relative to human 2D-VCAM-1” value in test [2] turned out to be 103 fold.

A word on the Kd: it is a measure of binding affinity in units of concentration. Lower therefore signals tighter binding.
